# B1: L12-transacetylase: Partially purified E. coli Q13 enzyme that acetylates the amino terminal serine of Met-L12 to form acetyl-Met-L12 (L7) (protein, UniProt P13857 1-179, looked up)
# Ribosomal-protein-serine …: MTETIKVSESLELHAVAENHVKPLYQLICKNKTWLQQSLNWPQFVQSEEDTRKTVQGNVMLHQRGYAKMFMIFKEDELIGVISFNRIEPLNKTAEIGYWLDESHQGQGIISQALQALIHHYAQSGELRRFVIKCRVDNPQSNQVALRNGFILEGCLKQAEFLNDAYDDVNLYARIIDSQ
# modifications: partially purified
# Legend:
# [1] = biological target: T1, peptide MetSO reductase (Escherichia coli, UniProt P0A744); assay: Inhibition of the reduction of MetSO-L12 by excess free MetSO; assay type: biochemical, E. coli; conditions: 1×10^-4 M MetSO, about 60 times the concentration of MetSO-L12; read-out: inhibition of the enzymatic activity of peptide MetSO reductase
# T1 construct: made in house; host or cells: E. coli Z19 cells (endogenous enzyme, not recombinant; ammonium sulfate, DE-52, Ultrogel AcA-44, DEAE-Sephadex)
# T1 sequence (P0A744 2-212): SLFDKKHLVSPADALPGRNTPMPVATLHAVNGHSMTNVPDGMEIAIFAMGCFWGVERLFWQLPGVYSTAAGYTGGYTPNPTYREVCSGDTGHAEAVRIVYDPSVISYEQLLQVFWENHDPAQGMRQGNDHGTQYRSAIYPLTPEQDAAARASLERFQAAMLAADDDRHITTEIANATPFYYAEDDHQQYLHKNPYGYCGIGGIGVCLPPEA
# Experimental: The assay for the reduction of MetSO-L12 to L12 is based on the ability of L12-transacetylase to specifically acetylate the amino terminal serine of Met-L12 to form acetyl-Met-L12, i.e. L7. A two-step incubation was used. […] After a 60 min incubation at 37°, the reaction mixtures were placed on ice and to each reaction mixture were added 2 μmol of sodium arsenite, 1.2 μg partially purified L12-transacetylase (see below) and [^3 H] acetyl-CoA (935 pmoles, 237 cpm/pmol) and the volume brought to 50 μl. The second incubation (acetylation reaction) was for 5 min at 37°, after which the reaction mixtures were diluted with 3 ml of cold buffer A and filtered through a nitrocellulose filter. The filters were washed with 10 ml of this same buffer, dissolved in scintillation fluid and the radioactivity determined. Under these conditions L12 and acetyl-L12 are quantitatively retained by the nitrocellulose filter. The results are reported as pmoles of acetyl-L12 formed under these conditions.
# [2] = test system: Met-L12; assay: L12-transacetylase assay: acetylation of Met-L12; assay type: biochemical, E. coli
# Experimental: The fractions containing the enzyme activity were pooled (750 mg), concentrated and applied to a hydroxyapatite column (2×15 cm) equilibrated with a buffer containing 25 mM KPO4, pH 6.9, 1 mM β-mercaptoethanol and 10% glycerol. The column was eluted with a gradient from 25 mM to 250 mM KPO4, pH 6.9, containing 1 mM β-mercaptoethanol and 10% glycerol and the fractions containing enzymatic avtivity were pooled and concentrated (72 mg). This procedure yielded a 225 fold purification of the enzyme. Under standard conditions of assay as set forth by Brot and Weissbach [Biochem. Biophys. Res. Commun. 49, 673 (1972)] this fraction acetylated 46 nmols of Met-L12 per mg protein in 5 min. […] These properties are essential in order to use the enzymatic acetylation of Met-L12 as an assay for MetSO-L12 reduction. It was seen that at all concentrations of Met-L12, only one-third of the protein is acetylated.
Molecule,inhibition at 100 µM [1],MetSO-L12 as substrate for acetylation [2],fraction of Met-L12 acetylated ([2]; at all concentrations of Met-L12),"Met-L12 acetylated ([2]; in 5 min, standard conditions of assay, hydroxyapatite fraction)"
"C[S+]([O-])CC[C@H](N)C(=O)O (stereo partly shown) [MetSO, methionine sulfoxide]",< 20%,–,–,–
B1,–,not a substrate,one-third,46 nmols per mg protein

# From US4374928A, “Novel reductase” (Hoffmann-La Roche Inc., priority 1981, dated 1983)
